Measured values reported in US20190330277A1 (PIRBRIGHT INSTITUTE, published 2019).

Columns and labels:
Test in all cases: ELISA, variant from culture supernatant on Ni-NTA plate;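 further: antigenic evaluation by ELISA of constructs expressed at small scale in 96-well plates after transient plasmid transfection of cells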
[1] = target: T1, sc9-10_DS-CAV1_bRSV(RB94)_Fd_hp1_ig1
T1 construct: also called sc-v2
Method: (§1) Initial assessment of all constructs were performed using a 96-well microplate format for high throughput expression followed by an ELISA-based antigenic evaluation as described previously 17. […] Plasmid DNA and TrueFect-Max (United BioSystems, MD) were mixed and added to the growing cells, and the 96-well plate incubated at 37° C., 5% CO2. One day post transfection, enriched medium (high glucose DMEM plus 25% ultra-low IgG fetal bovine serum, 2× nonessential amino acids, 1× glutamine) was added to each well, and the 96-well plate was returned to the incubator for continuous culture.

KXlinker2 = target: T2, KXlinker2
T2 construct: also called sc-v35
Method: as §1

[2] = target: T3, sc9-10_DS-CAV1_bRSV(RB94)_Fd_pm1_ig1
T3 construct: also called sc-v11
Method: as §1

[3] = target: T4, 391-2-DS-Cav1-BZGJ9 Long K226L
T4 construct: also called sc-v12
Method: as §1

[4] = target: T5, 391-2 hu/bov-DS-Cav1-BZGJ9 Long
T5 construct: also called sc-v18
Method: as §1

KXint1 = target: T6, KXint1
T6 construct: also called sc-v29
Method: as §1

[5] = target: T7, sc9-10_DS-CAV1_bRSV(RB94)_Fd_hp1_fp1_ig1
T7 construct: also called sc-v8
Method: as §1

[6] = target: T8, RB94 site 0 hRSV bovSurf DS-Cav1-BZGJ9 Long FdPL
T8 construct: also called sc-v7
Method: as §1

KXlinker1 = target: T9, KXlinker1
T9 construct: also called sc-v30
Method: as §1

391-2-DS-Cav1-IP-5 = target: T10, 391-2-DS-Cav1-IP-5
T10 construct: also called sc-v19
Method: as §1

391-2-DS-Cav1-IP-4 = target: T11, 391-2-DS-Cav1-IP-4
T11 construct: also called sc-v32
Method: as §1

391-2_DS-Cav1-tzsc3 = target: T12, 391-2_DS-Cav1-tzsc3
T12 construct: also called sc-v33
Method: as §1

[7] = target: T13, 391-2-site 0 hRSV DSCav1-BZGJ9 Long
T13 construct: also called sc-v9
Method: as §1

[8] = target: T14, RB94 site 0 hRSV DS-Cav1-BZGJ9 Long FdPL
T14 construct: also called sc-v6
Method: as §1

391-2_DS-Cav1-tzsc7 = target: T15, 391-2_DS-Cav1-tzsc7
T15 construct: also called sc-v21
Method: as §1

[9] = target: T16, sc9-10_DS-CAV1_bRSV(RB94)_Fd_hp2_ig1
T16 construct: also called sc-v3
Method: as §1

391-2-DS-Cav1-BZGJ9_gyc1 = target: T17, 391-2-DS-Cav1-BZGJ9_gyc1
T17 construct: also called sc-v16
Method: as §1

391-2-DS-Cav1-BZGJ9_gyc5 = target: T18, 391-2-DS-Cav1-BZGJ9_gyc5
T18 construct: also called sc-v10
Method: as §1

391-2-DS-Cav1-BZGJ9_gyc7 = target: T19, 391-2-DS-Cav1-BZGJ9_gyc7
T19 construct: also called sc-v27
Method: as §1

391-2_DS-Cav1-tzsc5 = target: T20, 391-2_DS-Cav1-tzsc5
T20 construct: also called sc-v25
Method: as §1

[10] = target: T21, sc9-10_DS-CAV1_bRSV(RB94)_Fd_pm1_fp1_ig1
T21 construct: also called sc-v15
Method: as §1

391-2-DSCav1- F-SC_7R = target: T22, 391-2-DSCav1- F-SC_7R
T22 construct: also called sc-v36
Method: as §1

RB94 DS-Cav1 Long FdPL = target: T23, RB94 DS-Cav1 Long FdPL
T23 construct: also called sc-v31
Method: as §1

[11] = target: T24, sc9-10_DS-CAV1_bRSV(RB94)_Fd_hp1_fp2_ig1
T24 construct: also called sc-v13
Method: as §1

[12] = target: T25, sc9-10_DS-CAV1_bRSV(RB94)_Fd_pm1_fp2_ig1
T25 construct: also called sc-v24
Method: as §1

[13] = target: T26, sc9-10_DS-CAV1_bRSV(RB94)_Fd_hp2_fp1_ig1
T26 construct: also called sc-v5
Method: as §1

[14] = target: T27, RB94 site 0 hRSV bovSurf DS-Cav1 Long FdPL
T27 construct: also called sc-v14
Method: as §1

391-2-DS-Cav1-BZGJ9 Long = target: T28, 391-2-DS-Cav1-BZGJ9 Long
T28 construct: also called sc-v17
Method: as §1

[15] = target: T29, sc9-10_DS-CAV1_bRSV(RB94)_Fd_fp2_ig1
T29 construct: also called sc-v34
Method: as §1

[16] = target: T30, RB94 site 0 hRSV DS-Cav1 Long FdPL
T30 construct: also called sc-v22
Method: as §1

391-2wt_F-SC_12R core = target: T31, 391-2wt_F-SC_12R core
T31 construct: also called sc-v28
Method: as §1

[17] = target: T32, 391-2-DS-Cav1-BZGJ9 Long S190V
T32 construct: also called sc-v23
Method: as §1

Binder	ELISA binding value [1]	ELISA binding value (KXlinker2)	ELISA binding value [2]	ELISA binding value [3]	ELISA binding value [4]	ELISA binding value (KXint1)	ELISA binding value [5]	ELISA binding value [6]	ELISA binding value (KXlinker1)	ELISA binding value (391-2-DS-Cav1-IP-5)	ELISA binding value (391-2-DS-Cav1-IP-4)	ELISA binding value (391-2_DS-Cav1-tzsc3)	ELISA binding value [7]	ELISA binding value [8]	ELISA binding value (391-2_DS-Cav1-tzsc7)	ELISA binding value [9]	ELISA binding value (391-2-DS-Cav1-BZGJ9_gyc1)	ELISA binding value (391-2-DS-Cav1-BZGJ9_gyc5)	ELISA binding value (391-2-DS-Cav1-BZGJ9_gyc7)	ELISA binding value (391-2_DS-Cav1-tzsc5)	other results
D25 antibody (antibody, V domains shown, also called mAb D25) VH: QVQLVQSGAEVKKPGSSVMVSCQASGGPLRNYIINWLRQAPGQGPEWMGGIIPVLGTVHYAPKFQGRVTITADESTDTAYIHLISLRSEDTAMYYCATETALVVSTTYLPHYFDNWGQGTLVTVSS VL: DIQMTQSPSSLSAAVGDRVTITCQASQDIVNYLNWYQQKPGKAPKLLIYVASNLETGVPSRFSGSGSGTDFSLTISSLQPEDVATYYCQQYDNLPLTFGGGTKVEIK	2.44	0.321	1.86	1.92	1.39	0.416	2.17	2.21	0.399	1.28	0.333	0.383	2.02	2.16	0.997	2.43	1.4	1.93	0.732	0.662	ELISA binding value [10]: 1.67; ELISA binding value (391-2-DSCav1- F-SC_7R): 0.225; ELISA binding value (RB94 DS-Cav1 Long FdPL): 0.392; ELISA binding value [11]: 1.88; ELISA binding value [12]: 1.01; ELISA binding value [13]: 2.17; ELISA binding value [14]: 1.7; ELISA binding value (391-2-DS-Cav1-BZGJ9 Long): 1.3; ELISA binding value [15]: 0.299; ELISA binding value [16]: 1.02; ELISA binding value (391-2wt_F-SC_12R core): 0.709; ELISA binding value [17]: 1.13
MPE8 antibody (antibody, V domains shown, also called mAb MPE8) VH: EVQLVESGGGLVKPGGSLRLSCAASGFTFSSYSMNWVRQAPGKGLEWVSSISASSSYSDYADSAKGRFTISRDNAKTSLFLQMNSLRAEDTAIYFCARARATGYSSITPYFDIWGQGTLVTVSS VL: QSVVTQTPSVSGAPGQRVTISCTGSSSNIGAGYDVHWYQQLPGTAPKLLIYDNNNRPSGVPDRFSASKSGTSASLAITGLQAEDEADYYCQSYDRNLSGVFGTGTKVTVL	2.18	0.361	1.87	1.78	1.32	0.599	2.16	2.14	0.544	1.41	0.541	0.433	2.08	2.2	1.5	2.21	1.55	1.8	0.821	1.22	ELISA binding value [10]: 1.73; ELISA binding value (391-2-DSCav1- F-SC_7R): 0.312; ELISA binding value (RB94 DS-Cav1 Long FdPL): 0.489; ELISA binding value [11]: 1.81; ELISA binding value [12]: 0.973; ELISA binding value [13]: 2.25; ELISA binding value [14]: 1.84; ELISA binding value (391-2-DS-Cav1-BZGJ9 Long): 1.45; ELISA binding value [15]: 0.464; ELISA binding value [16]: 1.39; ELISA binding value (391-2wt_F-SC_12R core): 0.646; ELISA binding value [17]: 1.19
